Reference: the RNAGym collection of RNA variant scans (doi:10.1073/pnas.2313332121)
Fewer inactive variants are shown than the library holds.

B1: TPR 5TU (parent)
chain: GGAUCUUCUCGAUCUAACAAAAAAGACAAAUCUGCCACAAAGCUUGAGAGCAUCUUCGGAUGCAGAGGCGGCAGCCUUCGGUGGCGCGAUAGCGCCAACGUUCUCAACUAUGACACGCAAAACGCGUGCUCCGUUGAAUGGAGUUUAUCAUG

Variants of: B1
Assay: polymerase ribozyme fitness, log enrichment relative to wild type (log ratio); higher = more active; in vitro selection for triplet polymerase activity
Outline: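 Libraries of mutants in each subunit of a heterodimeric triplet polymerase ribozyme were generated by PCR and transcribed. In triplicate, each went through one in vitro selection round: annealing with biotinylated primer, partner subunit and triplets; frozen incubation at −7 °C; gel excision of extended constructs; streptavidin-bead capture; RT-PCR. Fitness, taken from Illumina sequencing of input and output libraries, is the logarithm of a genotype's enrichment over wild-type enrichment, averaged across replicates with inverse-variance weights. The logarithm is base 2, and genotypes needed ≥10 input reads and ≥1 read per output to be kept.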

Row | Variant | polymerase ribozyme fitness (log ratio)
1 | GGAUCUUCUCGAUCUAACAAAAAAGACAUAUCUGCCACAAAGCUUGAGAGCAACUUCGGAUGCAGAGGCGGCAGCCUUCGGUGGCGCGAUAGCGCCAACGUUCUCAACUAUGACACGCAAAACGCGUGCUCCGUUGAAUGGAGUUUAUCAUG [A29U U53A] | -4.15
2 | GGAUCUUCUCGAUCUAACAAAAAAGACAUAUCUGCCACAAAGCUUGAGAGCACCUUCGGAUGCAGAGGCGGCAGCCUUCGGUGGCGCGAUAGCGCCAACGUUCUCAACUAUGACACGCAAAACGCGUGCUCCGUUGAAUGGAGUUUAUCAUG [A29U U53C] | ≤ -4.2
3 | GGAUCUUCUCGAUCUAACAAAAAAGACAACUCUGCCACAAAGCUUGAGAGCGUCUUCGGAUGCAGAGGCGGCAGCCUUCGGUGGCGCGAUAGCGCCAACGUUCUCCACUAUGACACGCAAAACGCGUGCUCCGUUGAAUGGAGUUCAUCAUG [A30C A52G A106C U146C] | ≤ -4.2
4 | GGAUCUUCUCGAUCUAACAAAAAAGACAACUCUGCGACAAAGCUUGAGAGCAUCUUCGGAUGCAGAGGCGGCAGCCGUCGGUGGCGCGAUAGCGCCAACGUUCUCAACUAUGACAUGCAAAACGUGUGCUCCCUUGAAUGGAGUUUAUCAUG [A30C C36G U77G C116U C125U G133C] | ≤ -4.2
5 | GGAUCUUCUCGAUCUAACAAAAAAGACAUAUCUGCCACAAAGCUUGAGAGCAUCUUCGGAUGCAGAGGCGGCAGCCUUCGGUGGCGCGAUAGCGCCAACGUUCCCAACUAUGACACGCAAAACGCGUGCUCCGUUGAAUGGAGUUUAUCAUG [A29U U104C] | -4.14
6 | GGAUCUUCUCGAUCUAACAAAAAAGACAACUCUGCCACAAAGGUAGAGAGCAUCUUCGGAUGCAGAGGCGGCAGCCUUCGGUGGCGAGAUAGCGCCAACGUUAUCAACUAUGACACGCAAAACGCGUGCUCCGUUGAAUGGAGUUUAUCAUG [A30C C43G U45A C87A C103A] | ≤ -4.2
7 | GGAUCUUCUCGAUCUAACAAAAAAGACAUAUCUGCCACAAAGCUUGAGAGCAUCUUCGGAUGCAGAGGCGGCAGCCUUCGGUGGCGCGAUAGCGCCAACGGUCGCAACUAUGACACGCAAAACGCGUGCUCCGUUGAAUGGAGUUUAUCAUG [A29U U101G U104G] | ≤ -4.2
8 | GGAUCUUCUCGAUCUAACAAAAAAGACAUAUCUGCCACAAAGCUUGAGAGCAUCAUCGGAUCCAGAGGCGGCAGCCUUCGGUGGCGCGAUAGCGCCAACGUUCUCAACUAUGACAGGCAAAACGCGUGCUCCGUUGAAUGGAGUUUAUCAUG [A29U U55A G62C C116G] | ≤ -4.2
9 | GGAUCUUCUCGAUCUAACAAAAAAGACAACUCUGCCACAAAGCUUGAGAGCCUCUUCGGAUGCAGAGGCGGCAGCCUUCGGUUCCGCGAUAGCGCCAACGUUCUCAACUAUGACACGCAAAACGCGUGCUCCGUAGAAUGCAGUUUAUCAUG [A30C A52C G83U G84C U135A G141C] | ≤ -4.2
10 | GGAUCUUCUCGAUCUAACAAAAAAGACAUAUCUGCCACAAAGCUAGAGAGCAUCUUCGGAUGCAGAGGCGGCAGCCUUCGGUGGCGCGAUAGCCCCAACGUUCUAAACUAUGUCACGCAAAACGCGUGCGCCGUGGAAUGGAGUUUAUCAUG [A29U U45A G94C C105A A113U U130G U135G] | ≤ -4.2
11 | GGAUCUUCUCGAUCUAACAAAAAAGACAACUCUGCCACAAAGCUUGAGAGCAUCUUCGGAUGCAGAGGCGGCAGCCUUCGGUGGCGCGAUCGCGCCAUCGUUCUCAACUAUGACACGCUAAACGCGUGCUCCGUUGAAUGGAGUUUAUCAUG [A30C A91C A98U A119U] | ≤ -4.2
12 | GGAUCUUCUCGAUCUAACAAAAAAGACAACUCUGUCACAAAGCUUGAGAGCAUCUUCGAAUGCAGAGGCGGCAGCCUUCGGUGGCGCUAUAGCGCCAACGUUCUCAACUAUGACACACAAAACGCGUGCUCCGUUGAAUGGAGUUUAUCAUG [A30C C35U G59A G88U G117A] | ≤ -4.2
13 | GGAUCUUCUCGAUCUAACAAAAAAGACAUAUCUGCCACAAAGCAUGAGAGCAUCUUCGGAUGCAGAGGCGGCAGCCUUCGGUGGGGCGAUAGCGCCAACGUUCUCAACUAUGACACGCAAAACACGUGCUCCGUUGAAUGGAGUUUAUCAUA [A29U U44A C85G G124A G152A] | ≤ -4.2
14 | GGAUCUUCUCGAUCUAACAAAAAAGACAUAUCAGCCACAAAGCUUGAGAGCAUCUUCGGAUGCAGAGGCGGCAGCCUUCGGUGGCGCGAUAGCGCCAACGUGCUCAACUAUGUCACGCAAAACGCGUGCUCCGUUGAAUGGAGCUUAUCAUG [A29U U33A U102G A113U U144C] | ≤ -4.2
15 | GGAUCUUCUCGAUCUAACAAAAAAGACAACUCUGUCACAAAGCUUGAGAGCAUCUUCGGAUGCAGAGGCGGCAGCCUUCGGUGGCGCUAUAGCGCCAACGUUCUCAACUAUGACAGGCAAAACGCGUGCUCCGUUGAAUGGAGUUUAUCAUG [A30C C35U G88U C116G] | -3.99
16 | GGAUCUUCUCGAUCUAACAAAAAAGACAACUCUGCCACUAAGCAUGAGAGCAACUUCGGAUGCAGAGGCGGCAGCCUUCGGUGGCGCGAUAGAGCCAACGUUCUCAACUAUGACACGCAAAACGCGUGCUCCGUUGAAUGGAGUUUAUCAUG [A30C A39U U44A U53A C93A] | ≤ -4.2
17 | GGAUCUUCUCGAUCUAACAAAAAAGACAUAUCUGCCACAAAGCGUGAGCGCAUCUUCGGAUGCAGAGGCGGCAGCCUUCGGUGGCGCGAUAGCGCCAACGUUGUCAACUAUGACACGCAAAACGCGUGCUCCGUUGAAUGCAGUUUAUCAUG [A29U U44G A49C C103G G141C] | ≤ -4.2
18 | GGAUCUUCUCGAUCUAACAAAAAAGACAACUCUGCCACAACGCUUGAGAGCAUCUUAGGAUCCAGAGGCGGCAGCCUUCGGUGGCGCGAUAACGCCAACGUUCUCAACUAUGACACGCAAAACGCGUGCUGCGUUGAAUGGAGUUUAUCAUG [A30C A41C C57A G62C G92A C131G] | ≤ -4.2
19 | GGAUCUUCUCGAUCUAACAAAAAAGACAACUCUGCCACAACGUUUGAGAGCAACUUCGGAUGCAGAGGCGGCAGCCUUCGGUGGCGCGAUAGUGCCAACGUUCUCAACUAUGACACGCAAAACGUGUGCUCCGUUGGAUGGAGUUUAUCAUG [A30C A41C C43U U53A C93U C125U A137G] | ≤ -4.2
